Data published in patent US20220195070A1 (Chugai, published 2022).
Changes are numbered by the printed parent chain. Like-named read-outs stand apart in the source and are kept apart here.

B1: SKA0009 (antibody, V domains shown)
VH: QSVEESGGRLVTPGTSLTLTCTVSGIDLSSYGMGWVRQAPGMGLEYIGIIYAAGRTYYASWVKGRFIISKTSTTVDLEMTSLTTEDTATYFCARHGSWYAGMDLWGPGTLVTVSS
VL: AIEMTQTPSPVSAAVGGTVSINCQASEDIENYFAWYQQKPGQPPKLLIYDASELASGVPSRFSGSGSGTDFTLTISGVQCDDAATYYCQHADYAASSENTFGGGTEVVVKG
notes: Recombinant rabbit monoclonal from B-cell cloning, expressed in FreeStyle 293-F cells; the first screen used B-cell culture supernatant; also called Anti-SG115 Antibody; rabbit Anti Fc-Mutation Antibody
B2: SKA0027 (antibody, V domains shown)
VH: QEQLVESGGGLVQPEGSLTLTCTASGFSFSSSDYMCWVRQAPGKGLEWIGCIYTGSGSTYYASWAKGRFTISKTSSTTVTLQMTSLTAADTATFFCARRGDSYSNYSFKLWGPGTLVTVSS
VL: AFELTQTPASVEAAVGGTVTIKCQASQNIYSNLAWYQQKPGQPPKLLIYTASSLASGVSSRFKGSGSGTEFTLTISDLECDDAATYYCQCTYINNGYGNTFGGGTEVVVKG
notes: as for B1
B3: SKA0016 (antibody, V domains shown)
VH: QEQLVESGGGLVQPEGSLTLTCTASGFSFSSSDYMCWVRQAPGKGLEWIACIYIGSNGDTFYASWAKGRFTISKTSSTTVTLQMTSLTAADTATYFCARDSRRADDYGTRLDLWGQGTLVTVSS
VL: DIVMTQTPSSVSAAVGGTVTIKCQASQNIYRNLAWYQQKPGQPPKLLIYQASKLESGVPSRFKGSGSGTEFTLTISDLDCDDAASYYCQSISYISSGDTFFWAFGGGTEVVVKG
notes: as for B1
B4: SKA0028 (antibody, V domains shown)
VH: QSVEESGGRLVTPGTPLTLTCTASGFTISSYHMSWVRQAPGKGLEWIGIIHGSGNMWYASWAKGRFTISRTSTTVDLEITSPTTEDTATYFCARIRFWASSNYYYFYLWGQGTLVTVSS
VL: ALVMTQTPASVSEPVGGTVTINCQASQNIYSNLAWYQQKPGQRPRLLIYGASNLESGVPSRFRGSGSGTEFTLTISDLECADAATYYCQSAYWGNNNDGAFGGGTEVVVKG
notes: as for B1
B5: SKA0046 (antibody, V domains shown)
VH: QEQLVESGGGLVQPEGSLTLTCTASGFSLSSSNYMWWVRQAPGKGLEWIACIHASSSGDTYYANWAKGRFTISKTSSTTVTLQMTSLTAADTATYFCARGGYIYGDGGYNGVAGFSLWGPGTLVTVSS
VL: DVVMTQTPASVSEPVGGTVTIKCQASETIGNALAWYQQKPGQRPKLLIYGASNLESGVPSRFKGSGSGTEFTLTISDVQCDDAATYYCQSIYYSSSADTFFFPFGGGTEVVVKG
notes: as for B1
B6: SKA0117 (antibody, V domains shown)
VH: QSLEESGGDLVKPEGSLTLTCTASGFSFSSSHYMCWVRQAPGKGLEWIACIYAGSSDNTYYASWAKGRFTISKTSSTTVTLQMTSLTAADTATYFCARDTYGYVGYASAGGFFNLWGPGTLVTVSS
VL: ALVMTQTPASVSAAVGGTVTINCQASHNIYSVLAWYQQKPGQRPRLLIYGASNLESGVPSRFKGSGSGTEYTLTISDLECDDAATYYCQSAYYSSSTGDNAFGGGTEVVVKG
notes: as for B1
B7: SKA0141 (antibody, V domains shown)
VH: QSLEESGGDLVKPGASLTLTCTASGFSFSSSYYMCWVRQAPGKGLEWIACIYAGSSGSTYYASWAKGRFTISKTSSTTVTLQMTSLTAADTATYFCARDGDENMLVGGYFNLWGPGTLVTVSS
VL: B6 VL with A9S, V32N, R45K, S96N, T97A, D99Y
notes: as for B1
B8: SKA0171 (antibody, V domains shown)
VH: QSLEESGGGLVQPEGSLTLSCTASGFSFSSSYYMCWVRQAPGKGLEWIACIYGGNSVITYYANWAKGRFTISETSSTTVTLQMTSLTAADTATYFCAREVHYDYLYTTYGYANLWGPGTLVTVSS
VL: AIKMTQTPASVSAVVGGTVTINCQASETIYSGLAWYQQKPGQPPKLLIYDTANLETGVSSRFKGSGSGTEYTLTISDLECDDAATYFCLYAYYSGGSADNAFGGGTEVVVKG
notes: as for B1
B9: SKA0052 (antibody, V domains shown)
VH: QSLEESGGDLVKSGASLTLTCTASGFSFSSSYYMCWVRQAPGKGLEWIACIYTGSNGDTYYASWANGRFTISKASSTTVTLQMTSLTAADTATYFCARYTYDDDGDYTSFNLWGPGTLVTVSS
VL: ALVMTQTPSSVSADVGGTVTINCQASQNIYRNLAWYQQKPGQRPKLLIYGASNLEPGVPSRFKGSGSGTEFTLTISDLECDDAATYYCQSVGYSGSVDTFFYAFGGGTEVVVKG
notes: as for B1
B10: SKA0001 (antibody, V domains shown)
VH: QSVEESGGRLVTPGTPLTLTCTVSGFSLSYYAMNWVRQAPGKGLEWIGIIGISGGTYYASWAKGRFTISKSSSTTVDLKMTSPTTEDTATYFCARGGSAWGDLWGQGTLVTVSS
VL: DIVMTQTPSSVSAAVGGTVTINCQASQSISRLLAWYQQKPGQPPKVLMHDASDLASGVPSRFKGSGSGTEYTLTISDLECADAATYYCQSYYWGSSGDIGYPFGGGTEVVVKG
notes: as for B1

Assays:
SG115 [1] = biological target: T1, SG115 (human, UniProt P01857 1-328 = IgG part); assay: ELISA, OD405 against dose (ng/mL, log axis 1-100)
T1 construct: also called modified IgG heavy chain constant region SG115

SG115v1 [2] = biological target: T2, SG115v1 (human, UniProt P01857 1-328 = IgG part); assay: ELISA, OD405 against dose (ng/mL, log axis 1-100)
T2 construct: Carries the CH2 modifications of SG115 (Arg235, Arg236, Lys239, EU); Construct used in the ELISA is not described beyond the constant region; also called modified IgG heavy chain constant region SG115v1

SG115v2 [3] = biological target: T3, SG115v2 (human, UniProt P01857 1-328 = IgG part); assay: ELISA, OD405 against dose (ng/mL, log axis 1-100)
T3 construct: Carries the CH3 modifications of SG115 (Leu428, Ala434, Arg438, Glu440, EU); Construct used in the ELISA is not described beyond the constant region; also called modified IgG heavy chain constant region SG115v2

Glm [4] = biological target: T4, Glm (human, UniProt P01857 1-328 = IgG part); assay: ELISA, OD405 against dose (ng/mL, log axis 1-100)
T4 construct: Construct used in the ELISA is not described beyond the constant region; also called G1m

G4d [5] = biological target: T5, G4d (human, UniProt P01861 1-325 = IgG part); assay: ELISA, OD405 against dose (ng/mL, log axis 1-100)
T5 construct: Construct used in the ELISA is not described beyond the constant region

Anti-IL-8 Antibody = biological target: T6, Anti-IL-8 Antibody; assay: SPR (Biacore T200), 25 C, pH 7.4; SKA antibody captured by anti-rabbit IgG, Anti-IL-8 Antibody injected 0-800 nM
T6 construct: also called anti-human IL-8 antibody; Fc-Mutated Antibody
Procedure: To confirm the binding ability of Anti Fc-Mutation Antibodies that show selective binding to SG115v1, KD values of Anti Fc-Mutation Antibodies against Anti-IL-8 Antibody at pH 7.4 were determined at 25 degrees C. using Biacore T200 instrument (GE Healthcare). Sequence of Fc region of Anti-IL-8 Antibody has high similarity to that of Anti-hC5 Antibody.
Anti-rabbit IgG (Abbexa) was immobilized onto FC1 and 2 of a CMS sensor chip using an amine coupling kit (GE Healthcare). For the immobilization of anti-rabbit IgG, HBS-EP+, pH7.4 (GE Healthcare) buffer was used as running buffer. After the immobilization, running buffer was changed to Phosphate pH7.4 buffer (50 mM phosphate buffer containing 150 mM NaCl and 0.05 w/v % P-20, pH 7.4). Each Anti Fc-Mutation Antibody was captured onto FC2 of the sensor chip by anti-rabbit IgG. The amount of Anti Fc-Mutation Antibody to be captured was adjusted so that the number of resonance units (RU) was 100. Anti-IL-8 Antibody was injected at 0, 100, 400, and 800 nM at 10 micro L/min. Sensor surface was regenerated after each cycle with 10 mM Glycine-HCl, pH2.0, which was injected at a flow rate of 30 micro L/min. KD values were obtained using Biacore T200 Evaluation software, version 2.0 (GE Healthcare).

SG115 [6] = biological target: T1, SG115; assay: ELISA, OD405 against dose (ng/mL, log axis 1-100); remark: listed apart in the source
SG115v1 [7] = biological target: T2, SG115v1; assay: ELISA, OD405 against dose (ng/mL, log axis 1-100); remark: listed apart in the source
SG115v2 [8] = biological target: T3, SG115v2; assay: ELISA, OD405 against dose (ng/mL, log axis 1-100); remark: listed apart in the source
Glm [9] = biological target: T4, Glm; assay: ELISA, OD405 against dose (ng/mL, log axis 1-100); remark: listed apart in the source
G4d [10] = biological target: T5, G4d; assay: ELISA, OD405 against dose (ng/mL, log axis 1-100); remark: listed apart in the source

T5 sequence (P01861 1-325 S108P limits assumed): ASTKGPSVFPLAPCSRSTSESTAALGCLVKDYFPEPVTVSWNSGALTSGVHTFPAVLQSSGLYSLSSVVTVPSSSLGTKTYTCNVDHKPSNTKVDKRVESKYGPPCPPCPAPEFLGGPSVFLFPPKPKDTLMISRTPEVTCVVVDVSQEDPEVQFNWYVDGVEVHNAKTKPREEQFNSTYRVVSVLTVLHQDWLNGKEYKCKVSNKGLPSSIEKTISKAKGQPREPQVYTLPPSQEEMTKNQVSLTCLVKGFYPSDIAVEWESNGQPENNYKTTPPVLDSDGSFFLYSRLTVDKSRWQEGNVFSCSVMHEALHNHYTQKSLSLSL
T3 sequence (P01857 other isoform, or with tags, fused parts or gaps limits assumed): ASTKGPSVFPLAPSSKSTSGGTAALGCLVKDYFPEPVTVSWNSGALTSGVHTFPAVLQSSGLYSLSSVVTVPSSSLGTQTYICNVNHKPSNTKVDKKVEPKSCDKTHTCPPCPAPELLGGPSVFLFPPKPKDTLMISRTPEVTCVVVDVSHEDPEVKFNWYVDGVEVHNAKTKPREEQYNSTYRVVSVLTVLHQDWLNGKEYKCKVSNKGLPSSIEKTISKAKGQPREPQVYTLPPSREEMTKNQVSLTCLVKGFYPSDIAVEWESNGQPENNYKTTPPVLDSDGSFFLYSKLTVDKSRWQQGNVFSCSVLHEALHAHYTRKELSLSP
T6 sequence (constant, as listed by the source limits assumed): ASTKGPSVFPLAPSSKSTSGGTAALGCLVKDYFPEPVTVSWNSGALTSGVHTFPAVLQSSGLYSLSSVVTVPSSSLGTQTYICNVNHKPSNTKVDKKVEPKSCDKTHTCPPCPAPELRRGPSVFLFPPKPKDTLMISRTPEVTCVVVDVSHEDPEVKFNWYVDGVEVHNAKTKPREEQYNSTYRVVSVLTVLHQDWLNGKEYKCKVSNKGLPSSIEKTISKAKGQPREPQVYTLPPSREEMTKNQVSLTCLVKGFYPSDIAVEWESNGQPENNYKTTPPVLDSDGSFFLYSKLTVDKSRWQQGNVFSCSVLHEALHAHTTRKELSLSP
T4 sequence (P01857 1-328 D239E/L241M limits assumed): as the sequence (constant, as listed by the source limits assumed) above, with R118L, R119G, G210A, S213A, S214P, L311M, A317N, T319Y, R321Q, E323S counted along it
T1 sequence (P01857 other isoform, or with tags, fused parts or gaps limits assumed): as the sequence (constant, as listed by the source limits assumed) above, with S122K, T319Y counted along it
T2 sequence (P01857 other isoform, or with tags, fused parts or gaps limits assumed): as the sequence (constant, as listed by the source limits assumed) above, with S122K, L311M, A317N, T319Y, R321Q, E323S counted along it

| Binder | binding result (SG115 [1]) | binding result (SG115v1 [2]) | binding result (SG115v2 [3]) | binding result (Glm [4]) | binding result (G4d [5]) | Kd (Anti-IL-8 Antibody) | koff (Anti-IL-8 Antibody) | kon (Anti-IL-8 Antibody) | binding result (SG115 [6]) | binding result (SG115v1 [7]) | binding result (SG115v2 [8]) | binding result (Glm [9]) | binding result (G4d [10]) |
| --- | --- | --- | --- | --- | --- | --- | --- | --- | --- | --- | --- | --- | --- |
| B1 | binds | binds | no binding (tested: about 60 ng/mL) | no binding (tested: about 60 ng/mL) | no binding (tested: about 60 ng/mL) | 36.2 nM | 0.000904 s⁻¹ | 25000 M⁻¹ s⁻¹ | – | – | – | – | – |
| B2 | binds | no binding (tested: about 60 ng/mL) | binds | no binding (tested: about 60 ng/mL) | no binding (tested: about 60 ng/mL) | – | – | – | – | – | – | – | – |
| B3 | binds | binds | no binding (tested: about 60 ng/mL) | no binding (tested: about 60 ng/mL) | no binding (tested: about 60 ng/mL) | 60 nM | 0.00071 s⁻¹ | 11800 M⁻¹ s⁻¹ | – | – | – | – | – |
| B4 | binds | no binding (tested: about 60 ng/mL) | binds | no binding (tested: about 60 ng/mL) | no binding (tested: about 60 ng/mL) | – | – | – | – | – | – | – | – |
| B5 | binds | binds | no binding (tested: about 60 ng/mL) | no binding (tested: about 60 ng/mL) | no binding (tested: about 60 ng/mL) | 49.6 nM | 0.00209 s⁻¹ | 42000 M⁻¹ s⁻¹ | – | – | – | – | – |
| B6 | – | – | – | – | – | – | – | – | binds | no binding (tested: about 60 ng/mL) | binds | no binding (tested: about 60 ng/mL) | no binding (tested: about 60 ng/mL) |
| B7 | – | – | – | – | – | – | – | – | binds | no binding (tested: about 60 ng/mL) | binds | no binding (tested: about 60 ng/mL) | no binding (tested: about 60 ng/mL) |
| B8 | – | – | – | – | – | – | – | – | binds | no binding (tested: about 60 ng/mL) | binds | no binding (tested: about 60 ng/mL) | no binding (tested: about 60 ng/mL) |
| B9 | – | – | – | – | – | 47 nM | 0.00431 s⁻¹ | 91700 M⁻¹ s⁻¹ | binds | binds | no binding (tested: about 60 ng/mL) | no binding (tested: about 60 ng/mL) | no binding (tested: about 60 ng/mL) |
| B10 | binds | no binding (tested: about 60 ng/mL) | binds | no binding (tested: about 60 ng/mL) | no binding (tested: about 60 ng/mL) | – | – | – | – | – | – | – | – |
